“And” between values parts separate entries of the source, which are not always exact repeats. Identical values can stand only once.

In assay [1] the target is human erythrocyte spectrin (human, UniProt P02549;P11277). In words: co-sedimentation.
Assay [2] addresses chicken skeletal muscle actin (chicken, UniProt P68139 1-377). In words: co-sedimentation.

Sequence of human erythrocyte spectrin (P02549 whole entry, chain 1 of 2): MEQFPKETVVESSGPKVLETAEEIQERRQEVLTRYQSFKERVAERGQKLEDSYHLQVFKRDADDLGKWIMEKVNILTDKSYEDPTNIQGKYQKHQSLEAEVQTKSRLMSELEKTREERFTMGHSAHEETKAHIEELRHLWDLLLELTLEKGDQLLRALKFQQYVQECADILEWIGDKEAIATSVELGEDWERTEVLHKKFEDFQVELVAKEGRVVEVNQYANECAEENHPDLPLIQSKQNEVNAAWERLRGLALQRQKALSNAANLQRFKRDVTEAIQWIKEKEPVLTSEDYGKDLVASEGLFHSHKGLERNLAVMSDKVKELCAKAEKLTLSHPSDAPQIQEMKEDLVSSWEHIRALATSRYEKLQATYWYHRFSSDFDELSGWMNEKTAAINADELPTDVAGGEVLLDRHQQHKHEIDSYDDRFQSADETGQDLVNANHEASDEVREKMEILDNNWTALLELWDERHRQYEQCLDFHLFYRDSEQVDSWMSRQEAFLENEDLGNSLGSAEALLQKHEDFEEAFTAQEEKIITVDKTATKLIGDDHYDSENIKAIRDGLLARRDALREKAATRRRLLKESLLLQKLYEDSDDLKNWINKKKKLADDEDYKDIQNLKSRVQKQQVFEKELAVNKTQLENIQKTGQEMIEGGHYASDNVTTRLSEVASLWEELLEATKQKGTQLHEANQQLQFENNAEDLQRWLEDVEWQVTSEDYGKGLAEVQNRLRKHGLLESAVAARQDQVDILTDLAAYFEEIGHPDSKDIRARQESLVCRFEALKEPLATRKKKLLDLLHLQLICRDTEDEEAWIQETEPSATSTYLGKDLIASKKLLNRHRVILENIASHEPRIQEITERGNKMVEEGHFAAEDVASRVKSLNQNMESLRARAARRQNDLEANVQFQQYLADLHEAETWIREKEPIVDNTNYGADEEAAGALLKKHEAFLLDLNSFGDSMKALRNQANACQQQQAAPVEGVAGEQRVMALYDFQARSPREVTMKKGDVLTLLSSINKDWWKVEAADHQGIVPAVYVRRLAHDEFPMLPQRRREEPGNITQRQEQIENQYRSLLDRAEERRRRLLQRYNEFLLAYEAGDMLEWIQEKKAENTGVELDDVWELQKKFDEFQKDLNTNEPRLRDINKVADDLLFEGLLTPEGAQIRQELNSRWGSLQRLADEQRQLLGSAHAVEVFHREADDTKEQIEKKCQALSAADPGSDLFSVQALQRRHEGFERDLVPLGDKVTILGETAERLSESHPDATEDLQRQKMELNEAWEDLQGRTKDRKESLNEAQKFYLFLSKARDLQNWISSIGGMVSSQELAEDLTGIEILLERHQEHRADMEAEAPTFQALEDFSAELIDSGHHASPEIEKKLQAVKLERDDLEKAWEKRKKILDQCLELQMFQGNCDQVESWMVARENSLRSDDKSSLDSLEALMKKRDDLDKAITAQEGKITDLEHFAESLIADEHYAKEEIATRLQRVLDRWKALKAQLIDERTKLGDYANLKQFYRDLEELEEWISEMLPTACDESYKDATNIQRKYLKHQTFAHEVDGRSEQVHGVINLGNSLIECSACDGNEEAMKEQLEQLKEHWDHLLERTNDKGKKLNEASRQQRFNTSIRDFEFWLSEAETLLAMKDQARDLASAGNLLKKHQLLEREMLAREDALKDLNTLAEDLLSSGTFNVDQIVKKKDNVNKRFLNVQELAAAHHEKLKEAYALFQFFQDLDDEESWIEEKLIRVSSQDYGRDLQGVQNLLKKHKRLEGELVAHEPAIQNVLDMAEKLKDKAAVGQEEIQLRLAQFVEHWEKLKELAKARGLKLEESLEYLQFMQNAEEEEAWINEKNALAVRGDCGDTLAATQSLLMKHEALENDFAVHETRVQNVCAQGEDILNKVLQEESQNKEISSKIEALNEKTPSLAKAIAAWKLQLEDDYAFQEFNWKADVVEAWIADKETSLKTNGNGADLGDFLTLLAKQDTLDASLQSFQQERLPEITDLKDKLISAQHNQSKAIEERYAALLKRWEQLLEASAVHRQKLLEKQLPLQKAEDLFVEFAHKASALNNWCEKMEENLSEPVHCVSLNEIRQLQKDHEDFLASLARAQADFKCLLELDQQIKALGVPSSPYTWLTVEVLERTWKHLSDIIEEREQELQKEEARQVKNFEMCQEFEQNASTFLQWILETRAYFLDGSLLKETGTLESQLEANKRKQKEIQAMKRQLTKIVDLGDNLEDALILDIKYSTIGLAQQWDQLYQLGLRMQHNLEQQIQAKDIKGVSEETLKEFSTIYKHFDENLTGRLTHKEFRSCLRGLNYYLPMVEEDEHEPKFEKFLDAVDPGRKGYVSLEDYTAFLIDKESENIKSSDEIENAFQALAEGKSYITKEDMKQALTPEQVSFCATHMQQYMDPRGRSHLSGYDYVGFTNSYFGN
Sequence of human erythrocyte spectrin (P11277 whole entry, chain 2 of 2): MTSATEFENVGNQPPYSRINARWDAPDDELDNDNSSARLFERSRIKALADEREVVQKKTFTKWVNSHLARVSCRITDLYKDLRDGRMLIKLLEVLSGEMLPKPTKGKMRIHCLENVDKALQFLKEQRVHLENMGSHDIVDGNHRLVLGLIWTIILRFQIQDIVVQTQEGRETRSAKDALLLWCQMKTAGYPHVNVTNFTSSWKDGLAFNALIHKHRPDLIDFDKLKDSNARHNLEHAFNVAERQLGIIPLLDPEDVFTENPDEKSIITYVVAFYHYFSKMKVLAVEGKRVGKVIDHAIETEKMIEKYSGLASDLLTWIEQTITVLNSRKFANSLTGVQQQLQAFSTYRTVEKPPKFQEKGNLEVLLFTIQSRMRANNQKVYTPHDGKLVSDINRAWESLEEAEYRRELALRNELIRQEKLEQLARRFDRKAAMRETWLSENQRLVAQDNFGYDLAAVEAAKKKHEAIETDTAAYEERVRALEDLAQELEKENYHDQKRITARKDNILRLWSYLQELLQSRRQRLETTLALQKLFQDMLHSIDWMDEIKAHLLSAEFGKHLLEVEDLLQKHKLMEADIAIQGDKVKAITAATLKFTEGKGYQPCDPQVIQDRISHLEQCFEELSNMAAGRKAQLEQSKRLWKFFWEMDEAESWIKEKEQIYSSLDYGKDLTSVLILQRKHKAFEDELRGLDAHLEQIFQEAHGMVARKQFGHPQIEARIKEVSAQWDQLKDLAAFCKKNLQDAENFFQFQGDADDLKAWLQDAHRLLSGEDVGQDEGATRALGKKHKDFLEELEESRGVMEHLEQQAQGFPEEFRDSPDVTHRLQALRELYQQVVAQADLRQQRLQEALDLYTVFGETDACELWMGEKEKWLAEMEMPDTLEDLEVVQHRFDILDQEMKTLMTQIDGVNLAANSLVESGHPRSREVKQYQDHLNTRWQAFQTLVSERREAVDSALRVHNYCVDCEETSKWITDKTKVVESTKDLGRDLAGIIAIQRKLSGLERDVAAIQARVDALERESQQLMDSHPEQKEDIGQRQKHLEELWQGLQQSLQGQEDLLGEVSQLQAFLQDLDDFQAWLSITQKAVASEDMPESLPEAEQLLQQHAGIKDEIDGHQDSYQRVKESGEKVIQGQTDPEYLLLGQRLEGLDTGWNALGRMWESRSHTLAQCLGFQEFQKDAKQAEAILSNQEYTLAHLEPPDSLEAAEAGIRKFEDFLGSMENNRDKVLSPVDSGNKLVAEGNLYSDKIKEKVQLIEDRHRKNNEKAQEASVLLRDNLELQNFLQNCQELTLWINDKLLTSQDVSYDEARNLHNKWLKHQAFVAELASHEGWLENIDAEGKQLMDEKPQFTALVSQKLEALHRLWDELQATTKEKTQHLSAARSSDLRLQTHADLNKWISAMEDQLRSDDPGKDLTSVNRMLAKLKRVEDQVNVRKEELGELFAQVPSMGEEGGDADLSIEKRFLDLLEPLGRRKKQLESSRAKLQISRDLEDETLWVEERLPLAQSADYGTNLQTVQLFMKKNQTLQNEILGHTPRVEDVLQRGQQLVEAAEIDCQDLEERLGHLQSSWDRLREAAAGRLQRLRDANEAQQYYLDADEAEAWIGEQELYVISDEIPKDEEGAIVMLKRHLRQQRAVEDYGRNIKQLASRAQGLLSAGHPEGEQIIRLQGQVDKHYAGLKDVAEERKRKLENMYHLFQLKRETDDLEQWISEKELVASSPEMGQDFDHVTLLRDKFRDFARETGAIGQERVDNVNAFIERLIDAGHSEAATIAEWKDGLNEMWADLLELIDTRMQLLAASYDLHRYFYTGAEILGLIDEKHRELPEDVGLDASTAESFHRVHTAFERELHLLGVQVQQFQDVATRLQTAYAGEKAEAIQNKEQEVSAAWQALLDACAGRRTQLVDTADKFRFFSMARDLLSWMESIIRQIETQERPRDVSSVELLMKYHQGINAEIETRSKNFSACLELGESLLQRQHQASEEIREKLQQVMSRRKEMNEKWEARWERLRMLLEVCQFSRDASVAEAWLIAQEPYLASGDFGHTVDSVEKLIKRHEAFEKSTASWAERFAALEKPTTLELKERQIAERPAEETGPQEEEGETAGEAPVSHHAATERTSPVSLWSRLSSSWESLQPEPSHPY

B1: adducin-actin complex (complex)
chain 1: MNGDSRAAVVTSPPPTTAPHKERYFDRVDENNPEYLRERNMAPDLRQDFNMMEQKKRVSMILQSPAFCEELESMIQEQFKKGKNPTGLLALQQIADFMTTNVPNVYPAAPQGGMAALNMSLGMVTPVNDLRGSDSIAYDKGEKLLRCKLAAFYRLADLFGWSQLIYNHITTRVNSEQEHFLIVPFGLLYSEVTASSLVKINLQGDIVDRGSTNLGVNQAGFTLHSAIYAARPDVKCVVHIHTPAGAAVSAMKCGLLPISPEALSLGEVAYHDYHGILVDEEEKVLIQKNLGPKSKVLILRNHGLVSVGESVEEAFYYIHNLVVACEIQVRTLASAGGPDNLVLLNPEKYKAKSRSPGSPVGEGTGSPPKWQIGEQEFEALMRMLDNLGYRTGYPYRYPALREKSKKYSDVEVPASVTGYSFASDGDSGTCSPLRHSFQKQQREKTRWLNSGRGDEASEEGQNGSSPKSKTKWTKEDGHRTSTSAVPNLFVPLNTNPKEVQEMRNKIREQNLQDIKTAGPQSQVLCGVVMDRSLVQGELVTASKAIIEKEYQPHVIVSTTGPNPFTTLTDRELEEYRREVERKQKGSEENLDEAREQKEKSPPDQPAVPHPPPSTPIKLEEDLVPEPTTGDDSDAATFKPTLPDLSPDEPSEALGFPMLEKEEEAHRPPSPTEAPTEASPEPAPDPAPVAEEAAPSAVEEGAAADPGSDGSPGKSPSKKKKKFRTPSFLKKSKKKSDS
chain 2: MSEETVPEAASPPPPQGQPYFDRFSEDDPEYMRLRNRAADLRQDFNLMEQKKRVTMILQSPSFREELEGLIQEQMKKGNNSSNIWALRQIADFMASTSHAVFPTSSMNVSMMTPINDLHTADSLNLAKGERLMRCKISSVYRLLDLYGWAQLSDTYVTLRVSKEQDHFLISPKGVSCSEVTASSLIKVNILGEVVEKGSSCFPVDTTGFCLHSAIYAARPDVRCIIHLHTPATAAVSAMKWGLLPVSHNALLVGDMAYYDFNGEMEQEADRINLQKCLGPTCKILVLRNHGVVALGDTVEEAFYKIFHLQAACEIQVSALSSAGGVENLILLEQEKHRPHEVGSVQWAGSTFGPMQKSRLGEHEFEALMRMLDNLGYRTGYTYRHPFVQEKTKHKSEVEIPATVTAFVFEEDGAPVPALRQHAQKQQKEKTRWLNTPNTYLRVNVADEVQRSMGSPRPKTTWMKADEVEKSSSGMPIRIENPNQFVPLYTDPQEVLEMRNKIREQNRQDVKSAGPQSQLLASVIAEKSRSPSTESQLMSKGDEDTKDDSEETVPNPFSQLTDQELEEYKKEVERKKLELDGEKETAPEEPGSPAKSAPASPVQSPAKEAETKSPLVSPSKSLEEGTKKTETSKAATTEPETTQPEGVVVNGREEEQTAEEILSKGLSQMTTSADTDVDTSKDKTESVTSGPMSPEGSPSKSPSKKKKKFRTPSFLKKSKKKEKVES
chain 3: […]
For orientation: Kd means a measure of binding affinity in units of concentration. Read a low Kd as a tighter complex. B1 gave a Kd in assay [1] of 104 nM.

B2: human erythrocyte adducin (complex)
chain 1: B1 chain 1
chain 2: B1 chain 2
The stoichiometry N is a count of units in the complex or per binding partner. With B2, in assay [2], the Kd amounted to 283 nM; the “stoichiometry N” value is ~0.143 M/M (adducin to actin) and 0.16 M/M (adducin to actin).

(Values after PMC2114693 (The Journal of Cell Biology, 1987).)
